The source of these data is paper PMC8602626.

The target in this test is GluA1::SNAP396 (UniProt P19490).
Chain of UniProt P19490 (P19490 19-907): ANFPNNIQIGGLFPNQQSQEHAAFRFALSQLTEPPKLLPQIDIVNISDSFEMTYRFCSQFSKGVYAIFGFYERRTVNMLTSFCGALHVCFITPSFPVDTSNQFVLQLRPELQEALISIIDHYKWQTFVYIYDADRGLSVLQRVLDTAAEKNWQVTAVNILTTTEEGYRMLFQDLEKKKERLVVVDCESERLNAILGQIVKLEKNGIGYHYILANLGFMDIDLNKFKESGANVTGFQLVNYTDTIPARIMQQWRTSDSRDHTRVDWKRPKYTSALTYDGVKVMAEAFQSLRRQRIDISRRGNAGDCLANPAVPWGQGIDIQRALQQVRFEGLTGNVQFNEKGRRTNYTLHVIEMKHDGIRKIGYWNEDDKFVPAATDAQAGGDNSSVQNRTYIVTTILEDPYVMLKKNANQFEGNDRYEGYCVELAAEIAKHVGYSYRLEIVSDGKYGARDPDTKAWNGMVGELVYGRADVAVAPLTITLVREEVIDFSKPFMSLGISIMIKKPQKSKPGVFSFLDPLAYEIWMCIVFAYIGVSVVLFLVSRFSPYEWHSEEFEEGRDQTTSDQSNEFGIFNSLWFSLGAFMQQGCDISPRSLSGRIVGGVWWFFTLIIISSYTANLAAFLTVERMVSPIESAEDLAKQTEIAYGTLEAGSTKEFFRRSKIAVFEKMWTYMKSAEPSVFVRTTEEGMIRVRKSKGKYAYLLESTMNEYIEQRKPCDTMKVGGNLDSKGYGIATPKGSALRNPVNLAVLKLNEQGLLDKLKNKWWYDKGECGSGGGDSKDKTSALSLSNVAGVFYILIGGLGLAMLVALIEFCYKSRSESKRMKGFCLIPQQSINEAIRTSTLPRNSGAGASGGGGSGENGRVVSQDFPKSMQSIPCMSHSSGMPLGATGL

B1: γ2 S44* (natural protein)
chain: MGLFDRGVQMLLTTVGAFAAFSLMTIAVGTDYWLYSRGVCKTKKVSENETSKKNEEVMTHSGLWRTCCLEGNFKGLCKQIDHFPEDADYEADTAEYFLRAVRASSIFPILSVILLFMGGLCIAASEFYKTRHNIILSAGIFFVSAGLSNIIGIIVYISANAGDPSKSDSKKNSYSYGWSFYFGALSFIIAEMVGVLAVHMFIDRHKQLRATARATDYLQASAITRIPSYRYRYQRRSRSSSRSTEPSHSRDASPVGVKGFNTLPSTEISMYTLSRDPLKAATTPTATYNSDRDNSFLQVHNCIQKDSKDSLHANTANRRTTPV
modifications: TCO*A (trans-cyclooct-2-ene-L-lysine) at 44, clicked with H-Tet-Cy3
Consider B1, for which the recovery from desensitization τrec, whole-cell patch clamp, HEK293T cells with untagged GluA1 (flip isoform) and γ2 S44*::eGFP (GluA1 alone 162.6) stood at 62.3 ms.

B2: γ2::eGFP (natural protein)
chain: MGLFDRGVQMLLTTVGAFAAFSLMTIAVGTDYWLYSRGVCKTKSVSENETSKKNEEVMTHSGLWRTCCLEGNFKGLCKQIDHFPEDADYEADTAEYFLRAVRASSIFPILSVILLFMGGLCIAASEFYKTRHNIILSAGIFFVSAGLSNIIGIIVYISANAGDPSKSDSKKNSYSYGWSFYFGALSFIIAEMVGVLAVHMFIDRHKQLRATARATDYLQASAITRIPSYRYRYQRRSRSSSRSTEPSHSRDASPVGVKGFNTLPSTEISMYTLSRDPLKAATTPTATYNSDRDNSFLQVHNCIQKDSKDSLHANTANRRTTPV
Take B2: the recovery from desensitization τrec, whole-cell patch clamp, HEK293T cells with untagged GluA1 (flip isoform) and γ2::eGFP (GluA1 alone 162.6) turned out to be 57.1 ms.

B3: γ8::eGFP (natural protein)
chain: MESLKRWNEERGLWCEKGVQVLLTTIGAFAAFGLMTIAISTDYWLYTRALICNTTNLTAGDDGPPHRGGSGSSEKKDPGGLTHSGLWRICCLEGLKRGVCVKINHFPEDTDYDHDSAEYLLRVVRASSIFPILSAILLLLGGVCVAASRVYKSKRNIILGAGILFVAAGLSNIIGVIVYISANAGEPGPKRDEEKKNHYSYGWSFYFGGLSFILAEVIGVLAVNIYIERSREAHCQSRSDLLKAGGGAGGSGGSGPSAILRLPSYRFRYRRRSRSSSRGSSEASPSRDASPGGPGGPGFASTDISMYTLSRDPSKGSVAAGLASAGGGGGGAGVGAYGGAAGAAGGGGTGSERDRGSSAGFLTLHNAFPKEAASGVTVTVTGPPAAPAPAPPAPAAPAPGTLSKEAAASNTNTLNRKTTPV
With B3, the recovery from desensitization τrec, whole-cell patch clamp, HEK293T cells with untagged GluA1 (flip isoform) and γ8::eGFP (GluA1 alone 162.6) is 40.9 ms.

B4: γ8 S72* (natural protein)
chain: MESLKRWNEERGLWCEKGVQVLLTTIGAFAAFGLMTIAISTDYWLYTRALICNTTNLTAGDDGPPHRGGSGKSEKKDPGGLTHSGLWRICCLEGLKRGVCVKINHFPEDTDYDHDSAEYLLRVVRASSIFPILSAILLLLGGVCVAASRVYKSKRNIILGAGILFVAAGLSNIIGVIVYISANAGEPGPKRDEEKKNHYSYGWSFYFGGLSFILAEVIGVLAVNIYIERSREAHCQSRSDLLKAGGGAGGSGGSGPSAILRLPSYRFRYRRRSRSSSRGSSEASPSRDASPGGPGGPGFASTDISMYTLSRDPSKGSVAAGLASAGGGGGGAGVGAYGGAAGAAGGGGTGSERDRGSSAGFLTLHNAFPKEAASGVTVTVTGPPAAPAPAPPAPAAPAPGTLSKEAAASNTNTLNRKTTPV
modifications: TCO*A (trans-cyclooct-2-ene-L-lysine) at 72, clicked with H-Tet-Cy3
Regarding B4, the recovery from desensitization τrec, whole-cell patch clamp, HEK293T cells with untagged GluA1 (flip isoform) and γ8 S72*::eGFP (GluA1 alone 162.6) came to 45.8 ms.
